Experimental data: the supplement of paper PMC10567573

B1: HNF4A (parent)
chain: RFSRQCVVDKDKRNQCRYCRLKKC

Variants of: B1
Assay: protein stability index of a GFP-peptide fusion (GPS, HEK-293T) (PSI 1-6); higher = more stable
Conditions: c terminus: a fixed tail appended
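Also: lentivirally expressed fusions sorted by FACS into six bins by GFP to DsRed ratio, PSI derived from sequencing read proportions per bin multiplied by bin number.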

Row | Variant | protein stability index
1 | RFSRPCVVDKDKRNQCRYCRLKKC [Q5P] | 2.39
2 | RFRRQCVVDKDKRNQCRYCRLKKC [S3R] | 3.1
3 | RFIRQCVVDKDKRNQCRYCRLKKC [S3I] | 2.77
4 | RFPRQCVVDKDKRNQCRYCRLKKC [S3P] | 3.26
5 | RFGRQCVVDKDKRNQCRYCRLKKC [S3G] | 2.34
6 | RFCRQCVVDKDKRNQCRYCRLKKC [S3C] | 3.62
7 | RFDRQCVVDKDKRNQCRYCRLKKC [S3D] | 2.58
8 | RFHRQCVVDKDKRNQCRYCRLKKC [S3H] | 2.7
9 | RFERQCVVDKDKRNQCRYCRLKKC [S3E] | 3.07
10 | RFMRQCVVDKDKRNQCRYCRLKKC [S3M] | 2.33
11 | RFNRQCVVDKDKRNQCRYCRLKKC [S3N] | 2.76
12 | RFWRQCVVDKDKRNQCRYCRLKKC [S3W] | 1.52
13 | RFTRQCVVDKDKRNQCRYCRLKKC [S3T] | 2.67
14 | RFKRQCVVDKDKRNQCRYCRLKKC [S3K] | 3.33
15 | RFARQCVVDKDKRNQCRYCRLKKC [S3A] | 2.59
16 | RFVRQCVVDKDKRNQCRYCRLKKC [S3V] | 2.17
17 | RFFRQCVVDKDKRNQCRYCRLKKC [S3F] | 1.91
18 | RFLRQCVVDKDKRNQCRYCRLKKC [S3L] | 2.08
19 | RFQRQCVVDKDKRNQCRYCRLKKC [S3Q] | 2.5
20 | RFYRQCVVDKDKRNQCRYCRLKKC [S3Y] | 2.95
21 | LFSRQCVVDKDKRNQCRYCRLKKC [R1L] | 2.31
22 | HFSRQCVVDKDKRNQCRYCRLKKC [R1H] | 3.54
23 | VFSRQCVVDKDKRNQCRYCRLKKC [R1V] | 1.53
24 | WFSRQCVVDKDKRNQCRYCRLKKC [R1W] | 2.21

Row | Variant | protein stability index
25 | MFSRQCVVDKDKRNQCRYCRLKKC [R1M] | 1.54
26 | QFSRQCVVDKDKRNQCRYCRLKKC [R1Q] | 2.66
27 | YFSRQCVVDKDKRNQCRYCRLKKC [R1Y] | 2.19
28 | SFSRQCVVDKDKRNQCRYCRLKKC [R1S] | 2.18
29 | NFSRQCVVDKDKRNQCRYCRLKKC [R1N] | 2.44
30 | GFSRQCVVDKDKRNQCRYCRLKKC [R1G] | 2.64
31 | DFSRQCVVDKDKRNQCRYCRLKKC [R1D] | 2.59
32 | FFSRQCVVDKDKRNQCRYCRLKKC [R1F] | 1.94
33 | CFSRQCVVDKDKRNQCRYCRLKKC [R1C] | 2.95
34 | KFSRQCVVDKDKRNQCRYCRLKKC [R1K] | 2.4
35 | PFSRQCVVDKDKRNQCRYCRLKKC [R1P] | 2.5
36 | AFSRQCVVDKDKRNQCRYCRLKKC [R1A] | 2.4
37 | EFSRQCVVDKDKRNQCRYCRLKKC [R1E] | 3.43
38 | TFSRQCVVDKDKRNQCRYCRLKKC [R1T] | 2.24
39 | IFSRQCVVDKDKRNQCRYCRLKKC [R1I] | 2.65
40 | RFSRQFVVDKDKRNQCRYCRLKKC [C6F] | 2.89
41 | RFSRQSVVDKDKRNQCRYCRLKKC [C6S] | 2.72
42 | RFSRQDVVDKDKRNQCRYCRLKKC [C6D] | 2.47
43 | RFSRQGVVDKDKRNQCRYCRLKKC [C6G] | 2.87
44 | RFSRQWVVDKDKRNQCRYCRLKKC [C6W] | 1.29
45 | RFSRQYVVDKDKRNQCRYCRLKKC [C6Y] | 2.32
46 | RFSRQQVVDKDKRNQCRYCRLKKC [C6Q] | 3.36
47 | RFSRQNVVDKDKRNQCRYCRLKKC [C6N] | 2.86
48 | RFSRQTVVDKDKRNQCRYCRLKKC [C6T] | 2.29

Row | Variant | protein stability index
49 | RFSRQHVVDKDKRNQCRYCRLKKC [C6H] | 2.77
50 | RFSRQMVVDKDKRNQCRYCRLKKC [C6M] | 2
51 | RFSRQIVVDKDKRNQCRYCRLKKC [C6I] | 2.33
52 | RFSRQPVVDKDKRNQCRYCRLKKC [C6P] | 2.72
53 | RFSRQRVVDKDKRNQCRYCRLKKC [C6R] | 2.6
54 | RFSRQEVVDKDKRNQCRYCRLKKC [C6E] | 2.82
55 | RFSRQAVVDKDKRNQCRYCRLKKC [C6A] | 3.24
56 | RFSRQKVVDKDKRNQCRYCRLKKC [C6K] | 3.17
57 | RFSRQVVVDKDKRNQCRYCRLKKC [C6V] | 2.62
58 | RFSRQLVVDKDKRNQCRYCRLKKC [C6L] | 1.99
59 | RFSRQCVVDMDKRNQCRYCRLKKC [K10M] | 2.9
60 | RFSRQCVVDFDKRNQCRYCRLKKC [K10F] | 1.98
61 | RFSRQCVVDSDKRNQCRYCRLKKC [K10S] | 2.02
62 | RFSRQCVVDPDKRNQCRYCRLKKC [K10P] | 2.8
63 | RFSRQCVVDVDKRNQCRYCRLKKC [K10V] | 2.47
64 | RFSRQCVVDNDKRNQCRYCRLKKC [K10N] | 2.43
65 | RFSRQCVVDHDKRNQCRYCRLKKC [K10H] | 2.79
66 | RFSRQCVVDTDKRNQCRYCRLKKC [K10T] | 2.41
67 | RFSRQCVVDCDKRNQCRYCRLKKC [K10C] | 2.25
68 | RFSRQCVVDWDKRNQCRYCRLKKC [K10W] | 2.59
69 | RFSRQCVVDRDKRNQCRYCRLKKC [K10R] | 2.78
70 | RFSRQCVVDDDKRNQCRYCRLKKC [K10D] | 2.49
71 | RFSRQCVVDLDKRNQCRYCRLKKC [K10L] | 2.37
72 | RFSRQCVVDGDKRNQCRYCRLKKC [K10G] | 2.55

Row | Variant | protein stability index
73 | RFSRQCVVDIDKRNQCRYCRLKKC [K10I] | 1.75
74 | RFSRQCVVDEDKRNQCRYCRLKKC [K10E] | 2.14
75 | RFSRQCVVDYDKRNQCRYCRLKKC [K10Y] | 2.82
76 | RFSRQCVVDQDKRNQCRYCRLKKC [K10Q] | 2.95
77 | RFSRQCVVDADKRNQCRYCRLKKC [K10A] | 1.7
78 | RFSHQCVVDKDKRNQCRYCRLKKC [R4H] | 3.57
79 | RFSDQCVVDKDKRNQCRYCRLKKC [R4D] | 2.27
80 | RFSTQCVVDKDKRNQCRYCRLKKC [R4T] | 1.62
81 | RFSFQCVVDKDKRNQCRYCRLKKC [R4F] | 1.9
82 | RFSIQCVVDKDKRNQCRYCRLKKC [R4I] | 1.85
83 | RFSNQCVVDKDKRNQCRYCRLKKC [R4N] | 2.53
84 | RFSGQCVVDKDKRNQCRYCRLKKC [R4G] | 2.6
85 | RFSMQCVVDKDKRNQCRYCRLKKC [R4M] | 2.91
86 | RFSVQCVVDKDKRNQCRYCRLKKC [R4V] | 2.59
87 | RFSKQCVVDKDKRNQCRYCRLKKC [R4K] | 2.58
88 | RFSPQCVVDKDKRNQCRYCRLKKC [R4P] | 1.54
89 | RFSQQCVVDKDKRNQCRYCRLKKC [R4Q] | 2.8
90 | RFSCQCVVDKDKRNQCRYCRLKKC [R4C] | 3.38
91 | RFSEQCVVDKDKRNQCRYCRLKKC [R4E] | 2.6
92 | RFSSQCVVDKDKRNQCRYCRLKKC [R4S] | 2.44
93 | RFSLQCVVDKDKRNQCRYCRLKKC [R4L] | 1.79
94 | RFSWQCVVDKDKRNQCRYCRLKKC [R4W] | 2.4
